Holding throughout (experiment): ELISA, coated antigen 1 ug/mL, antibody 10 ug/mL
The target in assay [1] is extracellular segment of human PRLR protein with avi-(his)6 tag (hPRLR-ECD-avi-his) (human) (UniProt P16471).
For assay [2], the target named is murine PRLR extracellular domain (mouse) (UniProt Q08501).
The target of assay [3] is extracellular segment of the PRLR protein of cynomolgus monkey with avi-(his)6 tag (cynoPRLR-ECD-avi-his) (cynomolgus monkey).

Residue numbers refer to the chain shown, from its start. Numbers in names are those of the source.

Sequence of extracellular segment of the PRLR protein of cynomolgus monkey with avi-(his)6 tag (cynoPRLR-ECD-avi-his) (cynomolgus monkey) (chain, as listed by the source limits assumed): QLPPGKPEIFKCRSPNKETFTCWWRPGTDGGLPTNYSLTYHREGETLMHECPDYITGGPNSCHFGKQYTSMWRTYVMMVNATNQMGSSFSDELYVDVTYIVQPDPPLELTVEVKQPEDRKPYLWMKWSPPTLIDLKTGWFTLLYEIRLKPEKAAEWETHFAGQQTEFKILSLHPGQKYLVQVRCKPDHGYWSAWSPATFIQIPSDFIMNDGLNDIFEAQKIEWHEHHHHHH
Sequence of murine PRLR extracellular domain (mouse) (Q08501 20-229): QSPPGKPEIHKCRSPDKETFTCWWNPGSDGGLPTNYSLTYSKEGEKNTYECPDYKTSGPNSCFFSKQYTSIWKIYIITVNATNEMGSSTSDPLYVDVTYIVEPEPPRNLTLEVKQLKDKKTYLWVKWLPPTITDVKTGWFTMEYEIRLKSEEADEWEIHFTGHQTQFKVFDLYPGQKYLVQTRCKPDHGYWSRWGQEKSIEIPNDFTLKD
Sequence of extracellular segment of human PRLR protein with avi-(his)6 tag (hPRLR-ECD-avi-his) (human) (P16471 other isoform, or with tags, fused parts or gaps): as the sequence (chain, as listed by the source limits assumed) above, with V76I, T110A, M125I, T158I, I207T counted along it

B1: H-PR-B06 (antibody, V domains shown)
VH: DVKLVESGGGLVKPGGSLKLACAASGFTFSSYTMSWVRQTPEKRLEWVATISSGGSYTYYPDSVKGRFTISRDNAKNTLYLQLSSLKSEDTAMYYCTRDRYYSTTPDWYFDVWGAGTTVTVSS
VL: DIVLTQSPATLSVTPGDSVSLSCRATQIIFNNLHWYQQKSHESPRLLITYTSQSISGIPSRFSGSGSGTDFTLTINSVETEDFGMYFCQQSNTWPRTFGGGTKLEIK
Take B1: the absorbance at 450nm in assay [1] was 3.94; in assay [2], 0.334; in assay [3], 0.435.

B2: HP-PR02H02 (antibody, V domains shown)
VH: B1 VH with D1E, K3M, V119L
VL: B1 VL with L4I
Consider B2, for which the absorbance at 450nm stood at 3.12 in assay [1] and 0.223 in assay [2].

B3: P-PR-C07H (antibody, V domains shown)
VH: EVQLQQSGAELVRPGTSVQISCKASGYTFTNNWLAWIKQRPGHGLEWIGDIYPGGVYTNYNEKFKGKATLTADTSSSTAYMQLSSLTSEDSAVYFCYYGDFWSAYWGQGTLVTVSA
VL: DIVMTQAAPSVPVTPGESVSISCRSSKSLLHSNGNTYLYWFLQRPGQSPQLLIYRMSNLASGVPDRFSGSGSGTAFTLRISRVEAEDVGVYYCMQHLEYPLTFGAGTKLELK
For the molecule B3, the values for the absorbance at 450nm in assay [2] and in assay [3] were 0.102 and 2.16, respectively.

B4: P-PR-G02W (antibody, V domains shown)
VH: QVQLQQPGSELVRPGASVKLSCKASGFTFTTYWVHWVKQRPGQGLEWIGNISPGSGSTNYDEKFKSKASLTVDTFSNTAYMQLSSLTSEDSAVYYCIRHSGNYFNAMDYWGQGTTLTVSS
VL: B3 VL
Take B4: the absorbance at 450nm in assay [1] was determined as 2.25; in assay [2], 0.09; in assay [3], 2.51.

B5: P-PR-C08H (antibody, V domains shown)
VH: B4 VH with L116V
VL: B3 VL
As for B5, the absorbance at 450nm is 0.094 in assay [2] and 2.25 in assay [3].

B6: P-PR-C02H (antibody, V domains shown)
VH: B4 VH with K19R, T115S, L116V
VL: B3 VL with A8T, T14A, S32T, N35Y
In the case of B6, the absorbance at 450nm in assay [2] was 0.115; in assay [3], 2.3.

B7: P-PR-B09W (antibody, V domains shown)
VH: B4 VH with Y32F, S55G, G56T, T115S, L116V
VL: B3 VL
Regarding B7, the absorbance at 450nm in assay [2] stood at 0.141; in assay [3], 2.51.

B8: P-PR-C04W (antibody, V domains shown)
VH: B4 VH with L116V
VL: B3 VL
With B8, the absorbance at 450nm came out at 2.16 in assay [1], 0.09 in assay [2] and 2.25 in assay [3].

B9: P-PR-D01H (antibody, V domains shown)
VH: B4 VH with S55G, S84G
VL: B3 VL
As to B9, the absorbance at 450nm amounted to 0.118 in assay [2] and 2.37 in assay [3].

B10: P-PR-D06H (antibody, V domains shown)
VH: B4 VH with Y32F, G56T, D61N, S66N
VL: B3 VL with S20T, N35K, R55W, L101F, A105V
For B10, the absorbance at 450nm was found to be 2.52 in assay [2] and 2.51 in assay [3].

B11: HP-PR01C02 (antibody, V domains shown)
VH: DVHLVESGPGLVKPSQSLSLTCTVTGYSITSDYAWNWIRQFPGNKLEWMGYISYSGSTGYSPSLKSRVSITRDTSKNQFFLQLNSVTTEDTATYFCARNNWAFDFWGQGTTLTVSS
VL: DIVLTQSPAIMSASPGEKVTMTCSASSSVNYMHWYQQKSGTSPKRWIYDTSKLASGVPARFSGSGSGTSYSLTISSMEAEDAATYYCQQWSSNPLTFGAGTKLELK
With B11, the absorbance at 450nm in assay [1] came to 1.45; in assay [2], 0.273; in assay [3], 1.52.

B12: HP-PR01B01 (antibody, V domains shown)
VH: EVHLVESGPDLVKPSQSLSLTCTVTGYSITSGYNWHWIRQFPGNKLEWMGYIHYSGSTKYDPSLKSRISFTRDTSRNQFFLQLNSVTTEDRATYYCARSEAGGYSWFAYWGQGTLVTVSA
VL: B11 VL with L4M, T22A
For B12, the absorbance at 450nm in assay [1] turned out to be 0.638; in assay [2] it was 0.161.

B13: H-PR-B03 (antibody, V domains shown)
VH: QVQLKESGPGLVAPSQSLSITCTVSGFSLTGFGVNWFRQPPGRGLEWLGMIWGDGSTDYNSALKSRLSISKDNSKSQVFLKMNSLQTDDTARYYCARVLYYYGGNSFAYWGQGTLVTVSA
VL: DVLMTQTPLSLPVSLGDQASISCRSSQSIVHSNGNTYLEWYLQKPGQSPKLLIYKVSSRFSGVPDRFSGSGSGTDFTLKISRVEAEDLGVYYCFQGSHVPYTFGGGTKLEIK
As to B13, the absorbance at 450nm in assay [1] came to 4; in assay [2] it was 0.382; in assay [3] it was 3.75.

B14: HP-PR02E11 (antibody, V domains shown)
VH: QVQLQQSGPGLVAPSQSLSITCTVSGFSLTSYGVNWVRQPPGKGLEWLGIIGAGGSTNYNSALMSRLSISKDNSKSQVFLKMNSLQTDDTAMYYCARSLYYYGSSSFAYWGQGTLVTVSA
VL: B13 VL with V2I, L3V, S58N, Y101W, I111L
Take B14: the absorbance at 450nm was 3.91 in assay [1], 3.44 in assay [2] and 3.65 in assay [3].

Values taken from patent EP4703383A1.
